From article PMC8232969 (Cell, 2021)

Target: SARS-CoV-2 Spike-2P (stabilized S ectodomain trimer) (SARS-CoV-2, UniProt P0DTC2)
Test: cryo-EM structure

| Binder | stoichiometry N |
| --- | --- |
| DH1047 Fab (Fab, V domains shown) VH: QVQLVQSGAEVKKPGASVQVSCQASANTFTNHYIHWVRQAPGQGLEWMGIIYPTGGNTIYAQGFQGRVTMTRDTSLNTIYLELSSLRSEDTAVYYCARDVRVDDSWSGYDLLSGGTYFDYWGQGTLVTVSS VL: not shown | 3 Fabs per S-2P trimer |
| DH1041 Fab (Fab, V domains shown) VH: EVQLVESGGGLVQPGGSLRLSCAASGVTFSSYWMSWVRQAPGKGLEWVANIRQDGSEKYSVDSVKGRFTISRDNAKNSLYLQMNSLRAEDTAVYYCARARRADNSGYYGFHFDCWGQGTLVTVSS VL: QSVLTQPPSVSGAPGQRVTISCTGSSSNIGAGYDVHWYQQLPGTAPKLLIYGNNNRPSGVPDRFSDSKSGTSASLAITRLQAEDEADYYCQSYDSSLSGWVFGGGTKLTVL | 3 Fabs per S-2P trimer |
